The values that follow come from patent publication US6682731 (LUDWIG INSTITUTE FOR CANCER RESEARCH, dated 2004).

The test concerns the target T1, HLA-A2 molecule (MHC class I heterodimer, no peptide of the filing added) (human).
T1 construct: as control target of the CTL assays it stood on T2 cells without added peptide or on COS-7 cells transfected with HLA-A2 alone; The subtype is printed only as HLA-A2.01 for the transfected gene; also called HLA-A2.01; MHC class-I molecule
Put plainly: HLA-A2 assembly/stabilisation in 0.174 cell lysate with 10 and 20 uM peptide, immunoprecipitation with mAb BB7.2, gel.

Description: It is an HLA-A2 presenting cell line deficient in the pathway which supplies peptides to the endoplasmic reticulum, the site of assembly of MHC class-I heterodimers. The cell line can assemble MHC class-I molecules, but these are unstable and, on cell lysis, dissociate into free heavy and light chains during overnight incubation. The heterodimers can, however, be stabilized in vitro via addition of appropriate peptide ligands. […] Thus, the stabilized molecules can be immunoprecipitated with antibodies specific for the MHC class-I molecule.
In the first part of these experiments, peptides were tested to determine if they facilitated assembly of HLA-A2 in the cell line. […] The cells were then washed, once, with phosphate buffered saline, and then resuspended in 10 ml of lysis buffer (0.5% NP-40; 0.5% Mega 9, 150 mM NaCl, 5 mM EDTA, 50 mM Tris [pH 7.5], 2 mM phenylmethylsulfonylfluoride, 5 mM iodoacetamide). The lysates were then incubated with peptide (10 μM and 20 μM), for 15–18 hours. Nuclei were then pelleted in a microfuge, and the lysates were precleared, overnight, at 4° C. with 0.2 ml of washed, 10% (w/v) Staphylococcus A organisms. […] The mixtures were incubated for 90 minutes on ice, followed by addition of bovine serum albumin to 1% (w/v), and 100 ul of 5% (w/v) protein-A Sepharose beads.

For TLVEVTLGEV [peptide SEQ ID NO: 7, Thr Leu Val Glu Val Thr Leu Gly Glu Val], the binding result is “binds”.
